Read-outs that look alike come from different tables or passages of the source.
T1: GR (Homo sapiens, UniProt P04150)
T1 construct: host or cells: HEK293 (HEK293/GRLuc; HEK293/GRLuc/MSR1 additionally transduced with human MSR1)
T1 sequence (P04150 524-758 limits assumed): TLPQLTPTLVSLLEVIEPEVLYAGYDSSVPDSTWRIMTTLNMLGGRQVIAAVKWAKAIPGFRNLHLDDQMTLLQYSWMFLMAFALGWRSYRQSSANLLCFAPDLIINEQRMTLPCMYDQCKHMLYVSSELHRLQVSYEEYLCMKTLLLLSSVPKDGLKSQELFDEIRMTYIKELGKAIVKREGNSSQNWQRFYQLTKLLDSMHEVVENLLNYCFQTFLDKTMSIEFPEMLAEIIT

T2: human macrophage scavenger receptor 1 (MSR1) (human, UniProt P21757 1-451)
T2 sequence (looked up): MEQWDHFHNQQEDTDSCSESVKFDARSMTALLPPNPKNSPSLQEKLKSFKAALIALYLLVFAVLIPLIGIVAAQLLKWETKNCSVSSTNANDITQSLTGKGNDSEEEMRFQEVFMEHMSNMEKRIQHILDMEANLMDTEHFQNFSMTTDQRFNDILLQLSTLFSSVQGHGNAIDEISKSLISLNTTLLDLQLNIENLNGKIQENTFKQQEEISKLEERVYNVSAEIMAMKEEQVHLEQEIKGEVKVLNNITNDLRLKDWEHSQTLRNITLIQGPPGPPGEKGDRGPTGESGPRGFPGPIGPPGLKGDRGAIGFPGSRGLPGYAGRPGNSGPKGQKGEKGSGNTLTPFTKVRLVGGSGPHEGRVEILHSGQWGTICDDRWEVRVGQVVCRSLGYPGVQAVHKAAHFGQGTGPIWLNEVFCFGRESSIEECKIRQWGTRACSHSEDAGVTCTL

B1: H1H21234N-N297Q-L2-PIII-1 (antibody, V domains shown)
VH: QVQLQESGPGLVKPSETLSLTCTVTGGSISRNYWSWIRQPPGKGLEWIGYIYYSGSIDYNPSLKSRVTISVDTSKNQFSLKLSSMTAADTAVYYCARDRWNWKYGMDVWGQGTTVIVSS
VL: EIVLTQSPGTLSLSPGERATLSCRASQTVRNNYLAWYHQKPGQAPRLLIYGASSRATGIPDRFSGSGSGTDFTLTISRLEPEDFTVYYCHQYGNSPWTFGQGTKMEIKR
modifications: heavy-chain constant region (not part of this entry): N297Q (EU); linker-payload L2-PIII-1 (DIBAC-suc-PEG4-Glu-vcPAB-PIII-1) clicked onto azido-PEG3-amine on glutamines; DAR 4
B2: H1H21234N-N297Q-L5-PIII-1 (antibody, V domains shown)
VH: B1 VH
VL: B1 VL
modifications: heavy-chain constant region (not part of this entry): N297Q (EU); linker-payload L5-PIII-1 (DIBAC-suc-SGGG-PIII-1) clicked onto azido-PEG3-amine on glutamines; DAR 4
B3: H1H21234N-N297Q-L6-PII-9 (antibody, V domains shown)
VH: B1 VH
VL: B1 VL
modifications: heavy-chain constant region (not part of this entry): N297Q (EU); linker-payload L6-PII-9 (DIBAC-suc-PEG4-PII-9, payload budesonide) conjugated as in Example 5; four DAR ADC
B4: H1H21234N-N297Q-L14-PII-1 (antibody, V domains shown)
VH: B1 VH
VL: B1 VL
modifications: heavy-chain constant region (not part of this entry): N297Q (EU); linker-payload L14-PII-1 (DIBAC-GGFG-NHCH2-Bud) conjugated as in Example 5; four DAR ADC
B5: H1H21234N-N297Q-L4-PIII-1 (antibody, V domains shown)
VH: B1 VH
VL: B1 VL
modifications: heavy-chain constant region (not part of this entry): N297Q (EU); linker-payload L4-PIII-1 (DIBAC-suc-GGF-PIII-1) clicked onto azido-PEG3-amine on glutamines; DAR 4

Legend:
GR = molecular target: T1, GR; assay: GR luciferase reporter assay in HEK293/GRLuc cells; assay type: cell-based
Protocol: Activity of anti-MSR1 ncADCs were tested using an MSR1 ADC steroid responsive luciferase reporter assay. To generate the assay cell line, HEK293 cells were co-transfected with the pBind-GR (Promega, Cat #E158A) and pGL4.35 [Luc2P/9xGAL4UAS/Hygro] (Promega, Cat #E137A) vectors. The pBind-GR vector expresses a fusion protein consisting of the GR ligand binding and the yeast Gal4DNA-binding domain, which binds to the Gal4 upstream activation sequence (UAS) in the luciferase expression vector, that can induce luciferase expression following GR agonist binding. The cells were selected for at least 2 weeks in G418+hygromycin and the resulting cell line is referred to as HEK293/GRLuc. HEK293/GRLuc cells were then transduced with a human MSR1 lentiviral expression vector and 48 hours later cells were sorted for MSR1 positive cells. The resulting cell line is referred to as HEK293/GRLuc/MSR1.
Three-fold serial dilutions of ncADCs in assay buffer were added to the cells for 48 hours. The last well in the plate served as blank control containing only the assay media and was plotted as a continuation of the 3-fold serial dilution. Luciferase activity was determined using the One-Glo™ reagent (Promega, Cat #E6130). Relative light units (RLUs) were measured on an Envision luminometer (PerkinElmer) and EC50 values were determined using a four-parameter logistic equation over a 10-point dose response curve (GraphPad Prism). The signal to noise (S/N) was determined by taking the ratio of the highest RLU on the dose response curve to the RLU in the untreated wells.
To test the activity of GR agonist payloads disclosed herein, a cell-based GR responsive luciferase reporter assay was developed as described above.
Three-fold serial dilutions of free payloads were prepared in 100% DMSO, transferred to fresh assay media, and added to the cells for 48 hours. […] The last well in the plate served as blank control containing only the assay media and 0.2% DMSO (untreated well) and was plotted as a continuation of the 3-fold serial dilution. Luciferase activity was determined using the One-Glo™ reagent (Promega, Cat #E6130). Relative light units (RLUs) were measured on an Envision luminometer (PerkinElmer) and EC50 values were determined using a four-parameter logistic equation over a 10-point dose response curve (GraphPad Prism). The signal to noise (S/N) was determined by taking the ratio of the highest RLU on the dose response curve to the RLU in the untreated wells.

[1] = molecular target: T2, human macrophage scavenger receptor 1 …; assay: cell-based or functional assay
[2] = molecular target: T2, human macrophage scavenger receptor 1 …; assay: cell-based or functional assay; remark: listed apart in the source
[3] = Table 8, ncADCs, highest RLU / RLU of untreated wells

Molecule | EC50 (GR; Table 8, ncADCs, 48 hours) | S/N (GR; [3]) | EC50, GR luciferase reporter activity in HEK293/GRLuc/MSR1 cells [1] | S/N (highest RLU / RLU in untreated wells), HEK293/GRLuc/MSR1 cells [1] | EC50, GR luciferase reporter activity in HEK293/GRLuc/MSR1 cells [2] | S/N, HEK293/GRLuc/MSR1 cells [2] | EC50 (GR; Table 11, ADCs) | S/N (GR; Table 11, ADCs)
B1 | 52.7 nM | 6.0 | 0.184 nM | 96.4 |  |  |  | 
B2 | 41.7 nM | 13.2 | 0.138 nM | 125 |  |  |  | 
B3 |  |  |  |  | 3.96 nM | 150 | > 100 nM | 15.8
B4 |  |  |  |  | 0.636 nM | 120 | > 100 nM | 16.8
B5 | 51.4 nM | 25.5 | 0.117 nM | 148 |  |  |  | 
